Test results: the supplement of paper PMC5998384

How the values were obtained:
HeLa Kyoto [1] = experiment: solubility change mitosis vs G1/S (difference of NP-40 vs SDS log2 ratios) (log2 ratio difference); higher = more soluble in mitosis
HeLa Kyoto [2] = experiment: thermal stability score vs G1/S (z-score of summed log2 fold changes over temperatures); higher = more thermally stable than in G1/S
HeLa Kyoto [3] = experiment: solubility in G1/S (NP-40 vs SDS abundance) (log2 ratio); higher = more soluble; settings: cell cycle stage: G1/S
[4] = cell cycle stage: early G1 (4.5 h after nocodazole release)
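Throughout, for solubility change mitosis vs G1/S (difference of NP-40 vs SDS log2 ratios): synchronized HeLa Kyoto cells (double thymidine block for G1/S, nocodazole release for mitosis), protein amounts in NP-40 versus SDS lysates quantified by mass spectrometry, three biological replicates.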
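Throughout, for solubility in G1/S (NP-40 vs SDS abundance): HeLa Kyoto cells arrested at G1/S by double thymidine block, proteins quantified by TMT10plex mass spectrometry in mild NP-40 versus SDS extracts, three biological replicates.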
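Throughout, for thermal stability score vs G1/S (z-score of summed log2 fold changes over temperatures): synchronized HeLa Kyoto cells, proteins quantified by TMT10plex mass spectrometry, three biological replicates, mitosis taken 0.5 h after nocodazole release, G1/S directly after double thymidine block.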

Sequence of WWP2 (chain, as listed by the source): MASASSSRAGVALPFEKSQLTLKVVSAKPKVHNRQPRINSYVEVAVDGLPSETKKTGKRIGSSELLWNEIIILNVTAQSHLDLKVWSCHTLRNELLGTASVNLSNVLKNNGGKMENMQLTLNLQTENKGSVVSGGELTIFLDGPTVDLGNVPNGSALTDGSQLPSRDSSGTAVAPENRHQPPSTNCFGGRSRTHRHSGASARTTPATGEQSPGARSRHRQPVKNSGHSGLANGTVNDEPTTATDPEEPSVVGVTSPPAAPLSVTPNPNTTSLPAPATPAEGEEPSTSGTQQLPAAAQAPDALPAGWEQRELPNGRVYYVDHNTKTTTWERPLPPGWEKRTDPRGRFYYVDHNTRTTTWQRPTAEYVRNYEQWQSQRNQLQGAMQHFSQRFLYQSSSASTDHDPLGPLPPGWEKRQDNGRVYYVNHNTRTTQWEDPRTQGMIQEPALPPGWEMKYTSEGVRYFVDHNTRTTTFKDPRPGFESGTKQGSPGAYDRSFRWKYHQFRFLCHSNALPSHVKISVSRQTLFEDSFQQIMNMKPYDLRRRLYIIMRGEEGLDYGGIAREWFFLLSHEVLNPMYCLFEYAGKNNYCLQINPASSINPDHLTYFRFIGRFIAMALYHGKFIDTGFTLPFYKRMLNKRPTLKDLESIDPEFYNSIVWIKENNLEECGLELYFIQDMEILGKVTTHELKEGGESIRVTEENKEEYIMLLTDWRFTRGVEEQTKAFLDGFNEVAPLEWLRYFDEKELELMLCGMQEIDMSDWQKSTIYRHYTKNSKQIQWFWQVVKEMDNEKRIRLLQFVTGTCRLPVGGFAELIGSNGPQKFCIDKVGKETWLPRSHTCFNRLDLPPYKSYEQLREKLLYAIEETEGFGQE

| Substance | solubility change mitosis (log2) (HeLa Kyoto [1]) | thermal stability score (HeLa Kyoto [2]; [4]) | thermal stability score (HeLa Kyoto [2]; cell cycle stage: mitosis) | solubility in G1/S (log2) (HeLa Kyoto [3]) |
| --- | --- | --- | --- | --- |
| MPEEAGFPPAKRFRPGSGPPSRAGSFPPGRQVVMLLTAGSGGRGGGGGRRQQPPLAQPSASPYPEAVELQRRSLPIFQARGQLLAQLRNLDNAVLIGETGSGKTTQIPQYLYEGGISRQGIIAVTQPRRVAAISLATRVSDEKRTELGKLVGYTVRFDDVTSEDTRIKFLTDGMLLREAISDSLLRKYSCVILDEAHERTIHTDVLFGVVKAAQKRRKELGKLPLKVIVMSATMDVDLFSQYFNGAPVLYLEGRQHPIQVFYTKQPQNDYLHAALVSVFQIHQEAPSSQDILVFLTGQEEIEAMSKTCRDIAKHLPDGCPAMLVLPLYASLPYAQQLRVFQGAPKGYRKVIISTNIAETSITITGIKYVVDTGMVKAKKYNPDSGLEVLAVQRVSKTQAWQRTGRAGREDSGICYRLYTEDEFEKFDKMTVPEIQRCNLASVMLQLLAMKVPNVLTFDFMSKPSPDHIQAAIAQLDLLGALEHKDDQLTLTPMGRKMAAFPLEPKFAKTILMSPKFHCTEEILTIVSLLSVDSVLHNPPSRREEVQGVRKKFISSEGDHMTLLNIYRTFKNLGGNKDWCKENFVNSKNMTLVAEVRAQLRDICLKMSMPIASSRGDVESVRRCLAHSLFMSTAELQPDGTYATTDTHQPVAIHPSSVLFHCKPACVVYTELLYTNKCYMRDLCVIDAQWLYEAAPEYFRRKLRTARN [DHX33] | 0.463 | 0.61 | 0.974 | -1.03 |
| MSSKQEIMSDQRFRRVAKDPRFWEMPEKDRKVKIDKRFRAMFHDKKFKLNYAVDKRGRPISHSTTEDLKRFYDLSDSDSNLSGEDSKALSQKKIKKKKTQTKKEIDSKNLVEKKKETKKANHKGSENKTDLDNSIGIKKMKTSCKFKIDSNISPKKDSKEFTQKNKKEKKNIVQHTTDSSLEEKQRTLDSGTSEIVKSPRIECSKTRREMQSVVQLIMTRDSDGYENSTDGEMCDKDALEEDSESVSEIGSDEESENEITSVGRASGDDDGSEDDEEEDEDEEEDEDEDSEDDDKSDSGPDLARGKGNIETSSEDEDDTADLFPEESGFEHAWRELDKDAPRADEITRRLAVCNMDWDRLKAKDLLALFNSFKPKGGVIFSVKIYPSEFGKERMKEEQVQGPVELLSIPEDAPEKDWTSREKLRDYQFKRLKYYYAVVDCDSPETASKIYEDCDGLEFESSCSFIDLRFIPDDITFDDEPKDVASEVNLTAYKPKYFTSAAMGTSTVEITWDETDHERITMLNRKFKKEELLDMDFQAYLASSSEDEEEIEEELQGDDGVNVEEDGKTKKSQKDDEEQIAKYRQLLQVIQEKEKKGKENDMEMEIKWVPGLKESAEEMVKNKLEGKDKLTPWEQFLEKKKEKKRLKRKQKALAEEASEEELPSDVDLNDPYFAEEVKQIGINKKSVKSAKDGTSPEEEIEIERQKAEMALLMMDEDEDSKKHFNYNKIVEHQNLSKKKKKQLMKKKELIEDDFEVNVNDARFQAMYTSHLFNLDPSDPNFKKTKAMEKILEEKARQRERKEQELTQAIKKKESEIEKESQRKSIDPALSMLIKSIKTKTEQFQARKKQKVK [ESF1] | 0.656 | 2.5 | 5.59 | -1.21 |
| MAVSERRGLGRGSPAEWGQRLLLVLLLGGCSGRIHQLALTGEKRADIQLNSFGFYTNGSLEVELSVLRLGLREAEEKSLLVGFSLSRVRSGRVRSYSTRDFQDCPLQKNSSSFLVLFLINTKDLQVQVRKYGEQKTLFIFPGLLPEAPSKPGLPKPQATVPRKVDGGGTSAASKPKSTPAVIQGPSGKDKDLVLGLSHLNNSYNFSFHVVIGSQAEEGQYSLNFHNCNNSVPGKEHPFDITVMIREKNPDGFLSAAEMPLFKLYMVMSACFLAAGIFWVSILCRNTYSVFKIHWLMAALAFTKSISLLFHSINYYFINSQGHPIEGLAVMYYIAHLLKGALLFITIALIGSGWAFIKYVLSDKEKKVFGIVIPMQVLANVAYIIIESREEGASDYVLWKEILFLVDLICCGAILFPVVWSIRHLQDASGTDGKVAVNLAKLKLFRHYYVMVICYVYFTRIIAILLQVAVPFQWQWLYQLLVEGSTLAFFVLTGYKFQPTGNNPYLQLPQEDEEDVQMEQVMTDSGFREGLSKVNKTASGRELL [GPR108] | -0.16 | -3.36 | -3.48 | 0.04 |
| MNPIVVVHGGGAGPISKDRKERVHQGMVRAATVGYGILREGGSAVDAVEGAVVALEDDPEFNAGCGSVLNTNGEVEMDASIMDGKDLSAGAVSAVQCIANPIKLARLVMEKTPHCFLTDQGAAQFAAAMGVPEIPGEKLVTERNKKRLEKEKHEKGAQKTDCQKNLGTVGAVALDCKGNVAYATSTGGIVNKMVGRVGDSPCLGAGGYADNDIGAVSTTGHGESILKVNLARLTLFHIEQGKTVEEAADLSLGYMKSRVKGLGGLIVVSKTGDWVAKWTSTSMPWAAAKDGKLHFGIDPDDTTITDLP [ASRGL1] | -0.207 | -1.89 | -2.25 | 0.282 |
| WWP2 | -0.0544 | 0.284 | -1.96 | -0.136 |
| MPTNFTVVPVEAHADGGGDETAERTEAPGTPEGPEPERPSPGDGNPRENSPFLNNVEVEQESFFEGKNMALFEEEMDSNPMVSSLLNKLANYTNLSQGVVEHEEDEESRRREAKAPRMGTFIGVYLPCLQNILGVILFLRLTWIVGVAGVLESFLIVAMCCTCTMLTAISMSAIATNGVVPAGGSYYMISRSLGPEFGGAVGLCFYLGTTFAGAMYILGTIEIFLTYISPGAAIFQAEAAGGEAAAMLHNMRVYGTCTLVLMALVVFVGVKYVNKLALVFLACVVLSILAIYAGVIKSAFDPPDIPVCLLGNRTLSRRSFDACVKAYGIHNNSATSALWGLFCNGSQPSAACDEYFIQNNVTEIQGIPGAASGVFLENLWSTYAHAGAFVEKKGVPSVPVAEESRASALPYVLTDIAASFTLLVGIYFPSVTGIMAGSNRSGDLKDAQKSIPTGTILAIVTTSFIYLSCIVLFGACIEGVVLRDKFGEALQGNLVIGMLAWPSPWVIVIGSFFSTCGAGLQSLTGAPRLLQAIARDGIVPFLQVFGHGKANGEPTWALLLTVLICETGILIASLDSVAPILSMFFLMCYLFVNLACAVQTLLRTPNWRPRFKFYHWTLSFLGMSLCLALMFICSWYYALSAMLIAGCIYKYIEYRGAEKEWGDGIRGLSLNAARYALLRVEHGPPHTKNWRPQVLVMLNLDAEQAVKHPRLLSFTSQLKAGKGLTIVGSVLEGTYLDKHMEAQRAEENIRSLMSTEKTKGFCQLVVSSSLRDGMSHLIQSAGLGGLKHNTVLMAWPASWKQEDNPFSWKNFVDTVRDTTAAHQALLVAKNVDSFPQNQERFGGGHIDVWWIVHDGGMLMLLPFLLRQHKVWRKCRMRIFTVAQVDDNSIQMKKDLQMFLYHLRISAEVEVVEMVENDISAFTYERTLMMEQRSQMLKQMQLSKNEQEREAQLIHDRNTASHTAAAARTQAPPTPDKVQMTWTREKLIAEKYRSRDTSLSGFKDLFSMKPDQSNVRRMHTAVKLNGVVLNKSQDAQLVLLNMPGPPKNRQGDENYMEFLEVLTEGLNRVLLVRGGGREVITIYS [SLC12A7] | -0.0793 | 0.109 | 0.0218 | -0.103 |
| MAQVSINNDYSEWDLSTDAGERARLLQSPCVDTAPKSEWEASPGGLDRGTTSTLGAIFIVVNACLGAGLLNFPAAFSTAGGVAAGIALQMGMLVFIISGLVILAYCSQASNERTYQEVVWAVCGKLTGVLCEVAIAVYTFGTCIAFLIIIGDQQDKIIAVMAKEPEGASGPWYTDRKFTISLTAFLFILPLSIPREIGFQKYASFLSVVGTWYVTAIVIIKYIWPDKEMTPGNILTRPASWMAVFNAMPTICFGFQCHVSSVPVFNSMQQPEVKTWGGVVTAAMVIALAVYMGTGICGFLTFGAAVDPDVLLSYPSEDMAVAVARAFIILSVLTSYPILHFCGRAVVEGLWLRYQGVPVEEDVGRERRRRVLQTLVWFLLTLLLALFIPDIGKVISVIGGLAACFIFVFPGLCLIQAKLSEMEEVKPASWWVLVSYGVLLVTLGAFIFGQTTANAIFVDLLA [SLC38A7] | -0.113 | -4.08 | -4.26 | -0.213 |
| MAAVVAATALKGRGARNARVLRGILAGATANKASHNRTRALQSHSSPEGKEEPEPLSPELEYIPRKRGKNPMKAVGLAWYSLYTRTWLGYLFYRQQLRRARNRYPKGHSKTQPRLFNGVKVLPIPVLSDNYSYLIIDTQAQLAVAVDPSDPRAVQASIEKEGVTLVAILCTHKHWDHSGGNRDLSRRHRDCRVYGSPQDGIPYLTHPLCHQDVVSVGRLQIRALATPGHTQGHLVYLLDGEPYKGPSCLFSGDLLFLSGCGRTFEGNAETMLSSLDTVLGLGDDTLLWPGHEYAEENLGFAGVVEPENLARERKMQWVQRQRLERKGTCPSTLGEERSYNPFLRTHCLALQEALGPGPGPTGDDDYSRAQLLEELRRLKDMHKSK [PNKD] | -0.135 | 0.265 | -0.394 | -0.0413 |
| MECPVMETGSLFTSGIKRHLKDKRISKTTKLNVSLASKIKTKILNNSSIFKISLKHNNRALAQALSREKENSRRITTEKMLLQKEVEKLNFENTFLRLKLNNLNKKLIDIEALMNNNLITAIEMSSLSEFHQSSFLLSASKKKRISKQCKLMRLPFARVPLTSNDDEDEDKEKMQCDNNIKSKTLPDIPSSGSTTQPLSTQDNSEVLFLKENNQNVYGLDDSEHISSIVDVPPRESHSHSDQSSKTSLMSEMRNAQSIGRRWEKPSPSNVTERKKRGSSWESNNLSADTPCATVLDKQHISSPELNCNNEINGHTNETNTEMQRNKQDLPGLSSESAREPNAECMNQIEDNDDFQLQKTVYDADMDLTASEVSKIVTVSTGIKKKSNKKTNEHGMKTFRKVKDSSSEKKRERSKRQFKNSSDVDIGEKIENRTERSDVLDGKRGAEDPGFIFNNEQLAQMNEQLAQVNELKKMTLQTGFEQGDRENVLCNKKEKRITNEQEETYSLSQSSGKFHQESKFDKGQNSLTCNKSKASRQTFVIHKLEKDNLLPNQKDKVTIYENLDVTNEFHTANLSTKDNGNLCDYGTHNILDLKKYVTDIQPSEQNESNINKLRKKVNRKTEIISGMNHMYEDNDKDVVHGLKKGNFFFKTQEDKEPISENIEVSKELQIPALSTRDNENQCDYRTQNVLGLQKQITNMYPVQQNESKVNKKLRQKVNRKTEIISEVNHLDNDKSIEYTVKSHSLFLTQKDKEIIPGNLEDPSEFETPALSTKDSGNLYDSEIQNVLGVKHGHDMQPACQNDSKIGKKPRLNVCQKSEIIPETNQIYENDNKGVHDLEKDNFFSLTPKDKETISENLQVTNEFQTVDLLIKDNGNLCDYDTQNILELKKYVTDRKSAEQNESKINKLRNKVNWKTEIISEMNQIYEDNDKDAHVQESYTKDLDFKVNKSKQKLECQDIINKHYMEVNSNEKESCDQILDSYKVVKKRKKESSCKAKNILTKAKNKLASQLTESSQTSISLESDLKHITSEADSDPGNPVELCKTQKQSTTTLNKKDLPFVEEIKEGECQVKKVNKMTSKSKKRKTSIDPSPESHEVMERILDSVQGKSTVSEQADKENNLENEKMVKNKPDFYTKAFRSLSEIHSPNIQDSSFDSVREGLVPLSVSSGKNVIIKENFALECSPAFQVSDDEHEKMNKMKFKVNRRTQKSGIGDRPLQDLSNTSFVSNNTAESENKSEDLSSERTSRRRRCTPFYFKEPSLRDKMRR [SGOL2] | 0.191 | 0.746 | 2.18 | -0.383 |
